Measured values published in article PMC3095777, “Structure and Activity of a Novel Archaeal β-CASP Protein with N-Terminal KH Domains” (Structure(London, England:1993), 2011).

Tests used:
[1] = biological target: T1, MTH1203 (Methanothermobacter thermautotrophicus …, UniProt O27271 1-636); assay: fluorescence anisotropy; 20 mM Tris pH 8.0, 1 M NaCl, 5 nM 5'-fluorescein RNA; temperature not stated; settings: protein: recombinant; tags: His-tag (His-tagged construct used in titrations); label: 5' fluorescein; single strand
T1 sequence: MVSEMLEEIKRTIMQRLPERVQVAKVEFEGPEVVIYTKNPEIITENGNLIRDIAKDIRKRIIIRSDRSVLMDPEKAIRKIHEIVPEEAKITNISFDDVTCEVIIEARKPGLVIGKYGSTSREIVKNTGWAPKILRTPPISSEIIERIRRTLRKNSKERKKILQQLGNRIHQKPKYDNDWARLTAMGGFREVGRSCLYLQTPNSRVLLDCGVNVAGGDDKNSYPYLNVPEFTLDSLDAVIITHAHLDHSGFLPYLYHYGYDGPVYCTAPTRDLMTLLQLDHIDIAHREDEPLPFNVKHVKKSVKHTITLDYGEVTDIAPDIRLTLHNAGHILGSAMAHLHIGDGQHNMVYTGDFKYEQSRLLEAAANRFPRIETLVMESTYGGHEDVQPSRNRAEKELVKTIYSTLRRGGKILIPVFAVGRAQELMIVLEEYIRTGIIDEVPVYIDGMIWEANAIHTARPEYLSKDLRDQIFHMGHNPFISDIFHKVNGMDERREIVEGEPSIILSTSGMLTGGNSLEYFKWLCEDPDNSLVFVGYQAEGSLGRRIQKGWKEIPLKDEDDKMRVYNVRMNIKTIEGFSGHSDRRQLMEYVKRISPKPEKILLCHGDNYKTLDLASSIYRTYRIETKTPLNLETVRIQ

[2] = biological target: the molecule itself; assay: SEC-MALS; size exclusion chromatography in line with multiangle laser light scattering; MTH1203 alone; 0.5 M NaCl, or 0.7 M NaCl or KCl

B1: A7 (ssRNA)
RNA: AAAAAAA
**Q.** Does B1 bind [1]?
**A.** Result: no binding

B2: MTH1203 (enzyme, Methanothermobacter thermautotrophicus, UniProt O27271 1-636, looked up)
chain: MVSEMLEEIKRTIMQRLPERVQVAKVEFEGPEVVIYTKNPEIITENGNLIRDIAKDIRKRIIIRSDRSVLMDPEKAIRKIHEIVPEEAKITNISFDDVTCEVIIEARKPGLVIGKYGSTSREIVKNTGWAPKILRTPPISSEIIERIRRTLRKNSKERKKILQQLGNRIHQKPKYDNDWARLTAMGGFREVGRSCLYLQTPNSRVLLDCGVNVAGGDDKNSYPYLNVPEFTLDSLDAVIITHAHLDHSGFLPYLYHYGYDGPVYCTAPTRDLMTLLQLDHIDIAHREDEPLPFNVKHVKKSVKHTITLDYGEVTDIAPDIRLTLHNAGHILGSAMAHLHIGDGQHNMVYTGDFKYEQSRLLEAAANRFPRIETLVMESTYGGHEDVQPSRNRAEKELVKTIYSTLRRGGKILIPVFAVGRAQELMIVLEEYIRTGIIDEVPVYIDGMIWEANAIHTARPEYLSKDLRDQIFHMGHNPFISDIFHKVNGMDERREIVEGEPSIILSTSGMLTGGNSLEYFKWLCEDPDNSLVFVGYQAEGSLGRRIQKGWKEIPLKDEDDKMRVYNVRMNIKTIEGFSGHSDRRQLMEYVKRISPKPEKILLCHGDNYKTLDLASSIYRTYRIETKTPLNLETVRIQ
notes: MTH1203 from Methanothermobacter thermautotrophicus strain delta H; mth1203 gene amplified from genomic DNA, cloned into pETYSBLIC-3C; predicted molecular mass 73.1 kDa; residues up to 636 named; Dimer at 0.5-0.7 M NaCl or KCl, monomer at 1 M NaCl; full cloning and purification details are in the Supplemental Experimental Procedures; also called β-CASP metallo-β-lactamase family nuclease; source: …
**Q.** Which “stoichiometry N” value [2] does the source give for B2 here?
**A.** The value was 2.

B3: U7 (ssRNA)
RNA: UUUUUUU
**Q.** With B3 as the binder, how does the Kd [1] read?
**A.** The Kd was 9.2 µM.

B4: G7 (ssRNA)
RNA: GGGGGGG
**Q.** Does B4 bind [1]?
**A.** Result: no binding

B5: C7 (ssRNA)
RNA: CCCCCCC
**Q.** Does B5 bind [1]?
**A.** Result: no binding
